Data taken from publication PMC3877283, “Development of Novel Radiogallium-Labeled Bone Imaging Agents Using Oligo-Aspartic Acid Peptides as Carriers” (PLoS ONE, 2013).
Read-outs that look alike come from different tables or passages of the source. Marks after values point to notes of the source that are not given here. Peptide text beside a SMILES is read from it. * marks the point of attachment. DOTA = O=C(O)CN1CCN(CC(=O)O)CCN(CC(=O)*)CCN(CC(=O)O)CC1

Experiment: Biodistribution experiments in mice with pretreatment of alendronate (20 mg/kg)
Format: in vivo, ddY mice
Conditions: for Radioactivity in Bone (Femur): Bone (complete left femur); for Radioactivity in Stomach: Stomach (footnote b)
Description: Experiments with animals were conducted in strict accordance with the Guidelines for the Care and Use of Laboratory Animals of Kanazawa University. The animal experimental protocols used were approved by the Committee on Animal Experimentation of Kanazawa University (Permit Number: AP-132633). Biodistribution experiments were performed after an intravenous administration of each diluted tracer solution (37 kBq/100 µL) to 6-week-old male ddY mice (27–32 g, Japan SLC, Inc., Hamamatsu, Japan). To investigate the effect of an excess amount of bisphosphonate on biodistribution, alendronate (20 mg/kg) was intravenously administered to mice 1 minute before the intravenous injection of ^67Ga-DOTA-(Asp)14 or ^67Ga-DOTA-Bn-SCN-HBP. Four to six mice each were sacrificed by decapitation at 10, 60, and 180 minutes post-injection. Tissues of interest were removed and weighed. Complete left femurs were isolated as representative bone samples, radioactivity was determined using an auto well gamma counter, and counts were corrected for background radiation and physical decay during counting.

[1] = 10 min after i.v. administration, alendronate 20 mg/kg i.v. 1 minute before, male ddY mice, mean (SD) for five or six animals
[2] = 60 min (1 h) after i.v. administration, alendronate 20 mg/kg i.v. 1 minute before, male ddY mice, mean (SD) for five or six animals
[3] = 180 min (3 h) after i.v. administration, alendronate 20 mg/kg i.v. 1 minute before, male ddY mice, mean (SD) for five or six animals

O=C(O)C[C@H](NC(=O)[C@H](CC(=O)O)NC(=O)[C@H](CC(=O)O)NC(=O)[C@H](CC(=O)O)NC(=O)[C@H](CC(=O)O)NC(=O)[C@H](CC(=O)O)NC(=O)[C@H](CC(=O)O)NC(=O)[C@H](CC(=O)O)NC(=O)[C@H](CC(=O)O)NC(=O)[C@H](CC(=O)O)NC(=O)[C@H](CC(=O)O)NC(=O)[C@H](CC(=O)O)NC(=O)[C@H](CC(=O)O)NC(=O)[C@H](CC(=O)O)NC(=O)CN1CCN(CC(=O)O)CCN(CC(=O)O)CCN(CC(=O)O)CC1)C(=O)O [67Ga-DOTA-(Asp)14, metal not drawn] ({DOTA}-DDDDDDDDDDDDDD-OH)
F/B ratio (Femur:blood ratio) [1]: 4.50 (0.63) ^**
F/B ratio (Femur:blood ratio) [2]: 52.96 (17.28) ^**
F/B ratio (Femur:blood ratio) [3]: 229.73 (67.08) ^**
Radioactivity in Blood (Blood, 60 min (1 h) after i.v. administration, alendronate 20 mg/kg i.v. 1 minute before, male ddY mice, mean (SD) for five or six animals): 0.23 (0.05) ^** % injected dose
Radioactivity in Blood (Blood, 180 min (3 h) after i.v. administration, alendronate 20 mg/kg i.v. 1 minute before, male ddY mice, mean (SD) for five or six animals): 0.06 (0.02) ^** % injected dose
Radioactivity in Bone (Femur) [1]: 8.59 (0.55) ^** % injected dose
Radioactivity in Bone (Femur) [2]: 11.81 (1.95) % injected dose
Radioactivity in Bone (Femur) [3]: 12.88 (2.30) % injected dose
Radioactivity in Brain [1]: 0.05 (0.01) % injected dose
Radioactivity in Brain [2]: 0.02 (0.00) ^* % injected dose
Radioactivity in Brain [3]: 0.01 (0.00) % injected dose
Radioactivity in Heart (Heart, 60 min (1 h) after i.v. administration, alendronate 20 mg/kg i.v. 1 minute before, male ddY mice, mean (SD) for five or six animals): 0.24 (0.08) ^** % injected dose
Radioactivity in Heart (Heart, 180 min (3 h) after i.v. administration, alendronate 20 mg/kg i.v. 1 minute before, male ddY mice, mean (SD) for five or six animals): 0.15 (0.07) ^** % injected dose
Radioactivity in Kidney (Kidney, 60 min (1 h) after i.v. administration, alendronate 20 mg/kg i.v. 1 minute before, male ddY mice, mean (SD) for five or six animals): 3.28 (0.82) ^** % injected dose
Radioactivity in Kidney (Kidney, 180 min (3 h) after i.v. administration, alendronate 20 mg/kg i.v. 1 minute before, male ddY mice, mean (SD) for five or six animals): 3.34 (0.92) ^** % injected dose
Radioactivity in Large-intestine [1]: 0.40 (0.08) ^* % injected dose
Radioactivity in Large-intestine [2]: 0.08 (0.01) ^** % injected dose
Radioactivity in Large-intestine [3]: 0.33 (0.07) ^** % injected dose
Radioactivity in Liver (Liver, 60 min (1 h) after i.v. administration, alendronate 20 mg/kg i.v. 1 minute before, male ddY mice, mean (SD) for five or six animals): 1.39 (0.29) ^** % injected dose
Radioactivity in Liver (Liver, 180 min (3 h) after i.v. administration, alendronate 20 mg/kg i.v. 1 minute before, male ddY mice, mean (SD) for five or six animals): 1.27 (0.72) ^** % injected dose
Radioactivity in Lung (Lung, 180 min (3 h) after i.v. administration, alendronate 20 mg/kg i.v. 1 minute before, male ddY mice, mean (SD) for five or six animals): 2.49 (1.78) ^* % injected dose
Radioactivity in Muscle (Muscle, 60 min (1 h) after i.v. administration, alendronate 20 mg/kg i.v. 1 minute before, male ddY mice, mean (SD) for five or six animals): 0.11 (0.07) % injected dose
Radioactivity in Muscle (Muscle, 180 min (3 h) after i.v. administration, alendronate 20 mg/kg i.v. 1 minute before, male ddY mice, mean (SD) for five or six animals): 0.05 (0.02) % injected dose
Radioactivity in Pancreas [1]: 0.72 (0.12) ^** % injected dose
Radioactivity in Pancreas [2]: 0.15 (0.02) ^** % injected dose
Radioactivity in Pancreas [3]: 0.12 (0.07) ^* % injected dose
Radioactivity in Small-intestine [1]: 0.53 (0.09) ^* % injected dose
Radioactivity in Small-intestine [2]: 0.22 (0.05) ^** % injected dose
Radioactivity in Small-intestine [3]: 0.29 (0.12) ^** % injected dose
Radioactivity in Spleen (Spleen, 60 min (1 h) after i.v. administration, alendronate 20 mg/kg i.v. 1 minute before, male ddY mice, mean (SD) for five or six animals): 1.03 (0.35) ^** % injected dose
Radioactivity in Spleen (Spleen, 180 min (3 h) after i.v. administration, alendronate 20 mg/kg i.v. 1 minute before, male ddY mice, mean (SD) for five or six animals): 0.89 (0.59) ^* % injected dose
Radioactivity in Stomach [1]: 0.36 (0.09) ^* % injected dose
Radioactivity in Stomach [2]: 0.15 (0.12) % injected dose
Radioactivity in Stomach [3]: 0.11 (0.04) ^** % injected dose
effect of alendronate pretreatment on accumulation in bone (in words) (alendronate 20 mg/kg i.v. 1 minute before tracer, mice): comparatively little effect
tissue uptake dose at 10 min (male, ddY, mouse, in vivo, iv, total radioactivity, Blood, 10 min after i.v. administration, alendronate 20 mg/kg i.v. 1 minute before, male ddY mice, mean (SD) for five or six animals, read-out: Radioactivity in Blood): 1.94 %ID
tissue uptake dose at 10 min (male, ddY, mouse, in vivo, iv, total radioactivity, Heart, 10 min after i.v. administration, alendronate 20 mg/kg i.v. 1 minute before, male ddY mice, mean (SD) for five or six animals, read-out: Radioactivity in Heart): 0.88 %ID
tissue uptake dose at 10 min (male, ddY, mouse, in vivo, iv, total radioactivity, Kidney, 10 min after i.v. administration, alendronate 20 mg/kg i.v. 1 minute before, male ddY mice, mean (SD) for five or six animals, read-out: Radioactivity in Kidney): 16.7 %ID
tissue uptake dose at 10 min (male, ddY, mouse, in vivo, iv, total radioactivity, Liver, 10 min after i.v. administration, alendronate 20 mg/kg i.v. 1 minute before, male ddY mice, mean (SD) for five or six animals, read-out: Radioactivity in Liver): 2.2 %ID
tissue uptake dose at 10 min (male, ddY, mouse, in vivo, iv, total radioactivity, Lung, 10 min after i.v. administration, alendronate 20 mg/kg i.v. 1 minute before, male ddY mice, mean (SD) for five or six animals, read-out: Radioactivity in Lung): 5.86 %ID
tissue uptake dose at 1 h (male, ddY, mouse, in vivo, iv, total radioactivity, Lung, 60 min (1 h) after i.v. administration, alendronate 20 mg/kg i.v. 1 minute before, male ddY mice, mean (SD) for five or six animals): 4.07 %ID
tissue uptake dose at 10 min (male, ddY, mouse, in vivo, iv, total radioactivity, Muscle, 10 min after i.v. administration, alendronate 20 mg/kg i.v. 1 minute before, male ddY mice, mean (SD) for five or six animals, read-out: Radioactivity in Muscle): 0.53 %ID
tissue uptake dose at 10 min (male, ddY, mouse, in vivo, iv, total radioactivity, Spleen, 10 min after i.v. administration, alendronate 20 mg/kg i.v. 1 minute before, male ddY mice, mean (SD) for five or six animals, read-out: Radioactivity in Spleen): 1.86 %ID
